Experimental data taken from patent US9873733B2, “Anti-staphylococcal antibodies” (priority 2012, dated 2018).

Legend:
[1] = test system: S. aureus SA113 Δspa (flippase reaction of MprF); assay: Cytochrome C repulsion assay; format: cell-based, Staphylococcus aureus; details: pre-incubation 3 hours, compared to anti-lysozyme antibodies
Method: The repulsion of positively charged cytochrome C has been repeatedly employed to investigate charge dependent cell surface modifications in bacteria, including the flippase reaction of MprF, which leads to increased positively charged lipids in the outer leaflet of the membrane and to increased repulsion of cytochrome C (Ernst et al., PLoS Pathogens 2009). Briefly, cells were grown in the presence of M-C4.1 or anti-lysozyme for 3 hours, followed by incubation with cytochrome C for 15 minutes and measurement of optical density of the supernatant in order to determine repulsion of positively charged cytochrome C. The established cytochrome C repulsion assay was scaled down to accommodate for the reduced amount of bacteria employed in the killing-assays.

[2] = test system: S. aureus mutants lacking MprF expression (delta spa delta mprF); assay: Whole cell ELISA on S. aureus mutant lacking MprF; format: binding, Staphylococcus aureus; details: compared with delta spa
Method: (§1) The specificity of the purified antibodies was tested for binding to whole cell Staphylococcus aureus in an ELISA assay. Escherichia coli bacteria were used as a negative control.
(§2) For ELISA on S. aureus the Protein A deletion mutant (delta spa) or the mutant with an additional deletion in MprF (delta spa delta mprf) were grown to mid log phase, than washed in PBS and resuspended in saline to a final OD600 of 0.6. This bacterial culture was coated on Maxisorp plates (Nunc). Plates were blocked with 2% BSA/PBS and washed with TSB containing 0.5% TWEEN20.

[3] = test system: S. aureus SA113 Δspa; assay: Killing of S. aureus by daptomycin with MprF antibodies; format: cell-based, Staphylococcus aureus; details: antibody 100 μg/ml, 12.5 μg/ml Daptomycin; anti-lysozyme antibody as control
Method: (§3) Overnight cultures of S. aureus SA113 Δspa were diluted in fresh MHB medium and adjusted to OD600 0.25 (˜1.5×10^7 cells). Antibodies were adjusted to a concentration of 1 mg/ml and 10 μl were applied per well of a 96 well plate and diluted in 90 μl of the adjusted cell suspension (final antibody concentration: 100 μg/ml). Cells were grown in the presence of anti-lysozyme antibody (control) or with the anti-MprF antibodies. Duplicates were employed for each assay. After 3 hours of incubation under shaking conditions at 37° C., optical density was determined, adjusted to OD600 0.025 in 500 μl ice cold PBS buffer. 80 μl of the adjusted cell suspension were diluted with 20 μl of antimicrobial substances to final concentrations of 22.5 μg/ml nisin. After incubation for 2 hours under shaking conditions at 37° C., the cell suspensions were diluted 1:2000 and 100 μl of each duplicate was plated in triplicates on TSB medium containing agar plates to obtain a representative value of bacterial survival. Cells treated without antimicrobial substance were set at 100% and survival values were calculated with cells treated with antimicrobial substances. At least three independent assays were employed.
The previous experiment was repeated, but instead of nisin, daptomycin is used. […]

[4] = test system: S. aureus SA113 Δspa; assay: Killing of S. aureus by nisin with MprF antibodies; format: cell-based, Staphylococcus aureus; details: antibody 100 μg/ml, 22.5 μg/ml nisin, 2 hours; anti-lysozyme antibody as control
Method: In this experiment killing of Staphylococcus aureus was tested. Nisin was used as an exemplary cationic antimicrobial compound. Nisin was tested in combination with selected antibodies of the present invention. An anti-lysozyme antibody was used as a negative control.
as §3

[5] = test system: S. aureus SA113 Δspa; assay: Killing of S. aureus by LL-37 with MprF antibodies; format: cell-based, Staphylococcus aureus; details: antibody 100 μg/ml, 45.0 μg/ml LL-37; anti-lysozyme antibody as control
Method: as §3
The previous experiment was repeated, but instead of nisin LL-37 is used. […]

[6] = target: cyclic peptide representing loop 4 of MprF (Staphylococcus aureus, UniProt Q2G2M2); details: IgG in PBS; biotinylated cyclic peptide 5 μg/ml
Method: The IgGs were tested for binding to the antigen, which was used in their selection. Also binding to other MprF-peptides was tested to check for selectivity.
For ELISAs with cyclic antigen, the biotinylated cyclic peptides (final conc. 5 μg/ml) were incubated with IgGs in PBS. Then the mix was transferred to a pre-blocked Neutravidin plate (Thermo Scientific), incubated and then the plate was washed with PBS containing 0.5% of TWEEN20. MprF-specific IgGs were detected using goat-anti-human IgG (Sigma).
In both cases washing was performed using PBST ([…] with 0.05% TWEEN20. Detection was performed using alkaline phosphatase coupled Goat anti-human IgG (Sigma Cat. # A-8542 and Attophos™ substrate Roche, Cat. #11681982001). Fluorescence was measured at an excitation of 440±25 nm and an emission of 550±35 nm. Full signal intensity is typically reached after 5-15 min at room temperature.

[7] = test system: Staphylococcus aureus clinical isolate 703; assay: Killing of clinical isolate 703 by daptomycin; format: cell-based; details: 11 μg/ml daptomycin; anti-lysozyme antibody as control
Method: as §3
In this experiment killing of Staphylococcus aureus clinical isolate 703 (described in Jones et al., AAC 2008) by daptomycin in the presence of an MprF specific antibody was analyzed. […]

[8] = test system: S. aureus SA113 Δspa (MprF-mediated flipping of lysyl-phosphatidylglycerol); assay: Annexin V assay; format: cell-based, Staphylococcus aureus; details: flow cytometry; anti-lysozyme pre-treated cells set at 100%
Method: Annexin V binds preferentially to negatively charged phospholipids and is therefore a useful tool for measuring the relative content of MprF-mediated flipping of lysyl-phosphatidylglycerol, as translocation leads to reduced accessibility of negatively charged phospholipids in the outer leaflet of the membrane and therefore to reduced binding of annexin V. Cells (S. aureus SA113 Δspa) were grown in the presence of M-C4.1 or anti-lysozyme antibody and then treated with annexin V for 15 minutes before being analyzed by flow cytometry for surface-bound fluorophore (FL-4 channel). Data are expressed in relative fluorescence units and compared to cells pre-treated with anti-lysoyzme set at 100% fluorescence.

[9] = test system: MprF on S. aureus (Protein A deletion mutant, delta spa); assay: Whole cell ELISA on S. aureus; format: binding, Staphylococcus aureus; details: E. coli as negative control
Method: as §1, §2

B1: M-C4.1: human IgG1 against cyclic peptide, loop 4 of MprF; VH1A kappa 1; VL Seq. ID: 44, VH Seq. ID: 45 (antibody, V domains shown)
VH: QVQLVQSGAEVKKPGSSVKVSCKASGGTFNSYAISWVRQAPGQGLEWMGGIIPIFGMATYAQKFQGRVTITADESTSTAYMELSSLRSEDTAVYYCARSLFGRAYWGQGTLVTVSS
VL: DIQMTQSPSSLSASVGDRVTITCRASQSISSFLAWYQQKPGKAPKLLIYDASSLQSGVPSRFSGSGSGTDFTLTISSLQPEDFATYYCLQADSTSYTFGQGTKVEIKRT
modifications: MC41 VH; MC41 VL
notes: human IgG1 against cyclic peptide, loop 4 of MprF; VH1A kappa 1; ID: 45
Decreased repulsion of cytochrome C [1]: 40% | Binding to S. aureus mutants lacking MprF expression (ELISA) [2]: significantly weaker binding | Sensitivity of S. aureus towards daptomycin (killing) [3]: increased the sensitivity of Staphylococcus aureus towards daptomycin | Sensitivity of S. aureus towards nisin (killing, bacterial survival) [4]: most pronounced effects | Sensitivity of S. aureus towards LL-37 (killing) [5]: increased the sensitivity of Staphylococcus aureus towards LL-37 | Specific binding to cyclic loop 4 peptide (ELISA) [6]: specifically bind to cyclic loop 4 peptide in a dose-dependent manner | Susceptibility of S. aureus 703 to daptomycin (killing) with MprF antibody [7]: restored susceptibility of S. aureus 703 bacteria to daptomycin | Increased binding of annexin V [8]: 70% | Binding to whole cell S. aureus (ELISA) [9]: detect MprF on S. aureus
